{
  "source": "the DeepSol protein solubility set",
  "data": [
    {"test": "soluble on expression in E. coli; label from the status in PepcDB or PDB records", "values": [
      {"sequence": "MRLALADAGDTVEDANFVEAMADAGILRLYTWVEWVKEMLASCSSLRSGPADSFNDRVFASEMNAGIIKTDQNYEKMMFKEALKTGFFEFQAAKDKYRELATEGMHRELVFRFIEVQTILLTPFCPHLCEHIWTLLGKPDSIMHASWPVAGPVDESLIRSSQYLMEVAHDLRLRLKNYMMPAKGKKTDKQPAQRPSHCTIYVAKNYPAWQHITLTTLRSHFEANNGKLPDNKVIASELGSLPELKKYMKKVMPFVAMIKENMEKKGPRVLDLELEFDEQAVLMENIVYLTNSLELEHIDVKFASEAEDKVREECCPGKPLNVFRTEPGVPVSLINPQPSSGHFSTKIDIRQGDSCESIIRRLTKTDRGIKDLSKVKLMRFDDPLLGPRRVPVLGREHSEKTLISENAVFHVDLVSKKVHLTENGLRMDIGDTMVYLVH", "soluble on expression in E. coli": "not soluble"},
      {"sequence": "MRLDYWSDSSKPIQQQWRDYDEISDNFKKAVVAAEDGKFVHHHGFDWEGIQYALEKNEKSGEVVNGGSTISQQLAKNLFLYNQRSLIRKGQEAIATWMMERMWSKQRILEVYMNSVQFGDHLYGVEAASHYYFHRSAQNLTRDQAAFLAALLPNPKYYQENRNDPRFKFKKRFTLKYMRYSEIP", "soluble on expression in E. coli": "not soluble"},
      {"sequence": "MRLFAIVLLCLVLATCASHIPSARVTHPASAGLPGLQGFQLMPPEQAVDALPYRNRYPLINAELRQGLAAHGYHESATPQFRVYYWLALRDAPLEFRPDLPPTSGMGPYLAIHRLRDETGTLRVRLVDLEERVLWEGMVSTGLSPARANPEQLELAVGALLRQLPRAR", "soluble on expression in E. coli": "not soluble"},
      {"sequence": "MRLLYVIKKENPMDQMPNCPKCQSEYVYHDSINFVCPDCGNEWDNNEIQESDDDQLIVKDSNGNLLAEGDNVLLIKDLKLKGSSEVLKKGTKFKNIRLVNGDHNVDCGKIMLKSEFLKKALEHHHHHH", "soluble on expression in E. coli": "soluble"},
      {"sequence": "MRLTSKGRYAVTAMLDVALNSEAGPVPLADISERQGISLSYLEQLFSRLRKNGLVSSVRGPGGGYLLGKDASSIAVGEVISAVDESVDATRCQGKGGCQGGDKCLTHALWRDLSDRLTGFLNNLEHHHHHH", "soluble on expression in E. coli": "not soluble"},
      {"sequence": "MRLWRICFKDPEPFIELYFHKVFREDYTLLQYSETGEAVAHLQMLPYQLRIFGTSFSAGYISGACTHPDHRGKGIMRTMMAEALSAIYDRGDICSFLIPAETWLYDFYSRSGGYAPAFGRKQFLYRPNSIPQKFPSGYACTIGQGDYSFLSAEEHTDIRLAVQHTLGQWQTALKDFSLAGGNVAMLQDSAGKTVSQACFVPRENSLDIKLLVGDAEATFILVDHLLRSLDCDHASILAHSGSAPYGMLRILRPIPILEAFAQYHPAEGYSFAYSDPLFSQHNGTYHISKGRIVFSNNVQPENSLLPHHTPDSLVKDLFSPFPSALFLMLD", "soluble on expression in E. coli": "not soluble"},
      {"sequence": "MRMENQKDLQENYLKVLERVELGSRVSGTVVNIMKDYVLVDIGYKSEGFIKIEEFENVPQVGDRLEAIVVRIGGELGLILSVEKLNSLNFQDKVYEYIQNKKIIKGKVLVELPNGYKIQINENVSGFMPFYLSSKSKDEKLKRGSVVEFYILEASEADGLRLILDRRTLEKERDLAKRIELVSSYNEEDVVDGVVERITEYGAIVKIKNFVTGILHKRNIAFNQVENVEDFVRVGDKLKLKIIKINPQTGKMELSLKALKANPWDSVDVKYKIDSIVKGKVVKILPFGAVIELDSELSGFLHISNFSWIRVVKSPQELIKLGQIVEVKILEIDKENQKISLGIKQINENPWERLTEKYPIGRVVQGVVTNITKTGAFVNIEEGIDAYVSKFDISWLEEIDPEEYFKIGDLVNGKVLEVDKRKRNVRLGIKQLEESPWEDFSKSYKKGDTIEVEIVEKKSKGFQVRVYNKIMGFISKIQLGDTKESSLETFEKLNVGDKLKVVITSIDSKDKSVLLSYREYENQRSREEISSYLFKGNDEESYKPFENLLKRDELEHHHHHH", "soluble on expression in E. coli": "soluble"},
      {"sequence": "MRMRHKPWWDDFLAENADIAISNPADYKGKWNTVFGNDNPIHIEVGTGKGQFISGMAKQNPDINYIGIELFKSVIVTAVQKVKDSEAQNVKLLNIDADTLTDVFEPGEVKRVYLNFSDPWPKKRHEKRRLTYSHFLKKYEEVMGKGGSIHFKTDNRGLFEYSLKSFSEYGLLLTYVSLDLHNSNLEGNIMTEYEEKFSALGQPIYRAEVEWRT", "soluble on expression in E. coli": "soluble"},
      {"sequence": "MRPLTRLVPLALLLLAGCAGPLPQPDPQMAWVELRSAPANTLLAERLDGERLSDGRYFQVTPGRHVLEVRFQYELYGGSGGGGGGFGEPVQINCYQQVVYDGFEAGRRYRLEVRPQLRRALALLSDERGEVVARSNFQTSRCPPY", "soluble on expression in E. coli": "not soluble"},
      {"sequence": "MRPNLRFYVQTINDIVKTTEDIGEVMNPYYEEVRQAIDKNKVNDLTAERIAEIQAKFKEGTEKYELMLKKVGTLKPTPQVLGIHKKFQHAYTEYVAGCNEMILATDPETGIDADLFNASEEKQDQATDELTFAITRMSNILLKK", "soluble on expression in E. coli": "not soluble"},
      {"sequence": "MRQALPLVTRQGDRIAIVSGLRTPFARQATAFHGIPAVDLGKMVVGELLARSEIPADAIEQLVFGQVVQMPEAPNIAREIVLGTGMNVHTDAYSVSRACATSFQAVANVAESLMAGTIRAGIAGGADSSSVLPIGVSKALARVLVDVNKARTTRQRLTLFSRLRLRDLLPVPPAVAEYSTGLRMGDTAEQMAKTYGITREQQDALAHRSHQRAAQAWAEGKLAEEVMTTYVPPYKNPFAEDNNIRGASTLADYAKLRPAFDRKHGSVTAANSTPLTDGAAAVILMTESRAKELGLRPLGYLRTYAFTAIDVWQDMLLGPAWSTPLALERAGLTMADLTLFDMHEAFAAQTLANLQLLGSERFAREVLGCAQATGEVDDAKFNVLGGSIAYGHPFAATGARMITQTLHELRRRGGGFGLVTACAAGGLGAAMVLEAE", "soluble on expression in E. coli": "not soluble"},
      {"sequence": "MRQRFLPLLALLSLLLPLPAPAAPTVSTVADQTGIALTIYNRNLGLVKDRREIRLAPGNGELRFMDVAAQIIPTSVSIASLAGGELQVLEQNYEYDLLSPQKLMDKYVGKEVKLHQKNPYTEREEVVTATLLSNNGGPVYRIGDEITFGHPGRLIFPGVPDDLIARPTLVWLLEGAAVEKRTIEASYLTGGISWRADYVVTLSEKDDQANLAGWVTIDNRSGAAYRNATLKLVAGDVNRVQEQSTRFAKSVRAEAMAPAPQFQEEAFFEYHLYTLQRPSTIKENQTKQINLVTADAVPVKKEFLLKGESFYYQSPAGEVEKQKVGVFVEMENRKEHNLGMPLPKGIVRVYKRDAGGSLQFVGEDTIDHTPEKETVRVKLGDAFDVVGERKQTEWRKVASDTYESAFEIRLRNHKKEDITVKVVEPVPGDWQMLSSSHPHEKGDAFSAVFKVPVPKDGEATLVYRVRMRYLEHHHHHH", "soluble on expression in E. coli": "soluble"},
      {"sequence": "MRQSGSWMTIWDDRILEIIHEEGNGSPKELEDRDEIRISKSSVSRRLKKLADHDLLQPLANGVYVITEEGEAYLNGEYDAGKERYINRGNSTDEENGADAPDGPGINS", "soluble on expression in E. coli": "soluble"},
      {"sequence": "MRRFQRSTVIDAPRELVWAFHEQADVLEQLTPPWLPVEVVRREGGLGPGAVSEFRLWLGPVPIRWVATHNDDYEPGRCFCDRQSQGPFADWLHRHIFSREGDRTRLIDEVEYALPGGWLPELSVGPVVDAQLERLFAYRQQVTKQWCESRRDAFLQSNRTTKGLQSLLEHHHHHH", "soluble on expression in E. coli": "soluble"},
      {"sequence": "MRSKGFLHLDTEIVVPFFDVDMMNIVWHGHYVKYLEVARCALLDHIGHNYMQMLESGYGWPVIDLQLRYVRSAVFGQKLNVRASLVEWENRLKINYLITDADTGERLTRASTVQVAVDRDSHEMQLASPQVFIDAVKRALPLEHHHHHH", "soluble on expression in E. coli": "soluble"},
      {"sequence": "MRSKYIVIEGLEGAGKTTARNVVVETLEQLGIRDMVFTREPGGTQLAEKLRSLLLDIKSVGDEVITDKAEVLMFYAARVQLVETVIKPALANGTWVIGDRHDLSTQAYQGGGRGIDQHMLATLRDAVLGDFRPDLTLYLDVTPEVGLKRARARGELDRIEQESFDFFNRTRARYLELAAQDKSIHTIDATQPLEAVMDAIRTTVTHWVKELDA", "soluble on expression in E. coli": "soluble"}
    ]}
  ]
}
